Here are results for five molecules from patent publication US20250306026A1 (Dana-Farber, published 2025).

Bridge positions count the residues as written; N and C are the ends. Square brackets hold non-standard residues; d marks the D form. Ends that are not written are not given here. * marks the point of attachment. Biotin = O=C1N[C@H]2[C@H](CS[C@H]2CCCCC(=O)*)N1; S5 = C=CCCC[C@](C)(N)C(=O)O

The term EC50 (read off the curve) denotes the midpoint of the concentration-response curve. What is called Kd is the constant that tells how readily two partners part at equilibrium.

In one data set the target is T1, MCL-1 SAHBD.
T1 chain: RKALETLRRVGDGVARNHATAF

Data set [1] has as its target MCL-1 SAHBs that do not bind VLCAD.
The target of a further data set is T2, MCAD (mouse, UniProt P45952 26-421).
T2 sequence (looked up): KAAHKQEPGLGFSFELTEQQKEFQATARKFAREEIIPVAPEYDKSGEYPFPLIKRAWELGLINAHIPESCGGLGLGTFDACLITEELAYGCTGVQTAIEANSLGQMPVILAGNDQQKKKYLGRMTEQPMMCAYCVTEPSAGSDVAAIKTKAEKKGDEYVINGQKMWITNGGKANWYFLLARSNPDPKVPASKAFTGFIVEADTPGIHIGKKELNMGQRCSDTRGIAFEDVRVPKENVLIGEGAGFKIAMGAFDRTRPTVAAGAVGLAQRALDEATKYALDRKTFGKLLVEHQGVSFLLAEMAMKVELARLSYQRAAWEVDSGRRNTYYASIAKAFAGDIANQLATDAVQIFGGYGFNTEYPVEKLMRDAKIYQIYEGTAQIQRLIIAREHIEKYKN
Kind of data set: streptavidin pull-down with biotinylated SAHB from cellular lysate; western blot for MCAD. The source says: (§1) To validate the MS result, the pulldowns were repeated and eluates run on a gel for anti-VLCAD Western blot analysis. VLCAD was detected in the MCL-1 SAHBD pulldown eluate, confirming the MS results. […] All peptides faithfully recapitulated native BH3-binding propensities for endogenous MCL-1 protein (FIG. 8). The eluates were then probed for the other members of the acyl-CoA dehydrogenase family that manifest shorter fatty acid substrate specificities. MCL-1 SAHBD was able to pull down VLCAD, but not MCAD or SCAD (FIG. 9). Because the traditional MCL-1 staple location differs from that of the BIM, BID, and BAD SAHBs, it was important to confirm that the observed VLCAD binding specificity was due to BH3 sequence selectivity, not staple position. A BIM SAHB with the traditional MCL-1 staple (BIM SAHBF), and a MCL-1 stapled peptide with the traditional BIM staple (MCL-1 SAHBA), were generated. […]
(§2) Wild-type MEFs were trypsinized, washed once with cold PBS, and lysed on ice with NP-40 lysis buffer (50 mM Tris, pH 7.4, 150 mM NaCl, 0.5% (v/v) NP-40, complete protease inhibitor pellet (Roche)) using 1 ml of lysis buffer for every 10 million cells lysed. Cellular debris was pelleted at 14,000 g for 10 min at 4° C., and the supernatant was quantified using the BCA Protein Assay Kit (Thermo Fisher Scientific). […]
(A western blot detects proteins with antibodies after separation by electrophoresis.)

The target of the next data set is T3, SCAD (mouse, UniProt Q07417 25-412).
T3 sequence (looked up): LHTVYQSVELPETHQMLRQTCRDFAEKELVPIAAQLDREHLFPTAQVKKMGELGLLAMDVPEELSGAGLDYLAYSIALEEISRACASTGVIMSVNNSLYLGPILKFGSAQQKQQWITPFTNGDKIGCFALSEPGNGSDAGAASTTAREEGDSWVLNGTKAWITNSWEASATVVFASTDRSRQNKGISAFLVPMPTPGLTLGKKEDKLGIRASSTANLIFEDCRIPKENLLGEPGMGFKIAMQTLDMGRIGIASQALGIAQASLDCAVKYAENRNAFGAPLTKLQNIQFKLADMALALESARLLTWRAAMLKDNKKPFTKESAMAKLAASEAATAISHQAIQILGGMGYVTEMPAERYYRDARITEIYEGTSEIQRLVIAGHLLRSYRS
In words: streptavidin pull-down with biotinylated SAHB from cellular lysate; western blot for SCAD.
Description: as §1, §2

For data set [2], the target named is recombinant VLCAD (mature human VLCAD lacking its cleavable leader sequence, aa 40-655, 10x His-tagged) (human) (UniProt P49748). Kind of data set: biolayer interferometry; Biotin-PEG SAHB on streptavidin sensors, VLCAD in solution at the plotted concentrations.
The target of a further data set is MCL-1ΔNΔC (UniProt Q07820). Kind of data set: biolayer interferometry; Biotin-PEG SAHB on streptavidin sensors, MCL-1ΔNΔC in solution at the plotted concentrations. Background: In BLI a coated tip is dipped into the sample, and binding shifts an interference pattern.
Chain of MCL-1ΔNΔC (Q07820 172-320, stated change not applied): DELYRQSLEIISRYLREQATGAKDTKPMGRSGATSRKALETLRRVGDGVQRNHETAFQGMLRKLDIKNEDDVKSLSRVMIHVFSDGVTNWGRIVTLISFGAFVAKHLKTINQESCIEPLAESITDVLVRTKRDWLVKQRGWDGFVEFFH
The target in data set [3] is T4, native VLCAD (Very Long Chain Acyl CoA Dehydrogenase) from mouse embryonic fibroblast lysates (mouse, UniProt P50544 42-656).
T4 construct: also called endogenous VLCAD of mouse liver mitochondria
T4 sequence (looked up): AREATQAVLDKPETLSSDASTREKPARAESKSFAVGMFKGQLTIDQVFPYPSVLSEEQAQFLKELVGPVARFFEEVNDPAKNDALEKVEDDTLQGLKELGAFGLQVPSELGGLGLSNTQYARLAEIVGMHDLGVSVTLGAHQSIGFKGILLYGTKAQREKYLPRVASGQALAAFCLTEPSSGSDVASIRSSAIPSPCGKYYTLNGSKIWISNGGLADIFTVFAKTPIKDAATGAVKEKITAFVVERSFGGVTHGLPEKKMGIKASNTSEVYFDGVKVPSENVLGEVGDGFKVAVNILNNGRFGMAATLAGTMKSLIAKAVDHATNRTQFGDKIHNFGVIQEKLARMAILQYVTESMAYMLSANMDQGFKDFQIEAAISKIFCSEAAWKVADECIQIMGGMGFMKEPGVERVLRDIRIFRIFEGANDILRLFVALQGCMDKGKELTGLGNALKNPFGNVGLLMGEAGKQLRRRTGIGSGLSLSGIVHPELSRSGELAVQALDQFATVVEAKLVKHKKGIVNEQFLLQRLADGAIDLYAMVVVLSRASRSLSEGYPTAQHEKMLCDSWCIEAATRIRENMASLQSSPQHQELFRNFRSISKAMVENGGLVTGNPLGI
Kind of data set: streptavidin pull-down with biotinylated SAHB from MEF lysate; western blot for VLCAD, densitometry ratio mutant/WT. How it is done:
Wild-type MEFs were trypsinized, washed once with cold PBS, and lysed on ice with NP-40 lysis buffer (50 mM Tris, pH 7.4, 150 mM NaCl, 0.5% (v/v) NP-40, complete protease inhibitor pellet (Roche)) using 1 ml of lysis buffer for every 10 million cells lysed. Cellular debris was pelleted at 14,000 g for 10 min at 4° C., and the supernatant was quantified using the BCA Protein Assay Kit (Thermo Fisher Scientific). 2 mg of lysate per pulldown were then exposed to 50 μL of pre-equilibrated High Capacity Streptavidin Agarose beads (Thermo Fisher Scientific). […] The beads were then pelleted and washed with NP-40 lysis buffer three times before eluting the protein sample from the beads by heating at 70° C. for 10 min in SDS loading buffer. Samples were then subjected to electrophoresis and either Western analysis or Coomassie stain (SimplyBlue Safe Stain, Thermo Fisher Scientific). The antibodies used for Western analysis were the following: MCL-1 (Rockland 600-401-394; 1:1000 in 3% BSA), VLCAD (Thermo Fisher Scientific PA5-29959; 1:1000 in 1% milk+0.1% Tween-20), MCAD (Thermo Fisher Scientific PA5-27201; 1:1000 in 3% BSA), and SCAD (Abcam ab154823; 1:1000 in 3% BSA). Coomassie stained gels were then processed for proteomics analysis (see below). Biotinylated SAHB pulldowns of recombinant protein were performed as above incubating 5 nmol of SAHB with 10 pmol of rVLCAD in 500 μL total volume. […]

Data set [4] has as its target recombinant VLCAD (mature human VLCAD lacking its cleavable leader sequence, aa 40-655, 10x His-tagged) (human) (UniProt P49748). Kind of data set: ITC, 200 µM Btn-peptide injected into 15 µM recombinant VLCAD, 25 °C, single binding site model. A general note: ITC needs no label: the signal is the heat of the interaction.
Data set [5] concerns the target T4, native VLCAD (Very Long Chain Acyl CoA …). Kind of data set: DSS chemical crosslinking of intact mouse liver mitochondria, Western (FIG. 32). From the text:
To investigate the native interaction between VLCAD and MCL-1, intact mitochondria were isolated from mouse livers and exposed to the chemical crosslinker DSS. Vehicle or DSS-treated mitochondria were then lysed and the resultant lysate run on a reducing/denaturing gel.

B1: recombinant VLCAD (mature human VLCAD lacking its cleavable leader sequence, aa 40-655, 10x His-tagged) (protein)
chain: YAGGAAQLALDKSDSHPSDALTRKKPAKAESKSFAVGMFKGQLTTDQVFPYPSVLNEEQTQFLKELVEPVSRFFEEVNDPAKNDALEMVEETTWQGLKELGAFGLQVPSELGGVGLCNTQYARLVEIVGMHDLGVGITLGAHQSIGFKGILLFGTKAQKEKYLPKLASGETVAAFCLTEPSSGSDAASIRTSAVPSPCGKYYTLNGSKLWISNGGLADIFTVFAKTPVTDPATGAVKEKITAFVVERGFGGITHGPPEKKMGIKASNTAEVFFDGVRVPSENVLGEVGSGFKVAMHILNNGRFGMAAALAGTMRGIIAKAVDHATNRTQFGEKIHNFGLIQEKLARMVMLQYVTESMAYMVSANMDQGATDFQIEAAISKIFGSEAAWKVTDECIQIMGGMGFMKEPGVERVLRDLRIFRIFEGTNDILRLFVALQGCMDKGKELSGLGSALKNPFGNAGLLLGEAGKQLRRRAGLGSGLSLSGLVHPELSRSGELAVRALEQFATVVEAKLIKHKKGIVNEQFLLQRLADGAIDLYAMVVVLSRASRSLSEGHPTAQHEKMLCDTWCIEAAARIREGMAALQSDPWQQELYRNFKSISKALVERGGVVTSNPLGF
As for B1, the “VLCAD enzymatic activity (reduction of ferrocenium hexafluorophosphate with palmitoyl-CoA as substrate)” value with MCL-1 SAHBD is “Pre-incubation of VLCAD with MCL-1 SAHBD caused a decrease in enzymatic activity”; in [1], “an effect not observed when MCL-1 SAHBs that do not bind VLCAD were added”.

B2: MCL-1 SAHBD (peptide)
peptide: RKALETLRRVGDGV[S5]RNH[S5]TAF
modifications: staple 15-19; also: derivatised forms: N-terminal biotin, Btn-PEG, fluorinated analog
notes: One entry for all derivatised forms (biotin, Btn-PEG, fluorinated, underivatised); the form used is named under assay in each row; also called Btn-MCL-1 SAHBD; Biotin-PEG-MCL-1 SAHBD
Consider B2, for which the binding result with MCAD and with SCAD was “no binding” each time. Further, the EC50 (read off the curve) in [2] worked out at 3 µM; with MCL-1ΔNΔC, 0.2 µM.

B3: MCL-1 SAHBD H224A (peptide)
peptide: RKALETLRRVGDGVARNAATAF
modifications: staple (positions not given here); not fully specified (residues 15, 19, bridges); also: biotinylated, site not given here
notes: MCL-1 numbering
Take B3: the binding result in data set [3] is listed as “no binding”.

B4: MCL-1 SAHBD V220A (peptide)
peptide: Biotin-RKALETLRRVGDGAARNH[S5]TAF
modifications: staple (positions not given here); not fully specified (residue 15, bridges); also: second staple residue not placed
On to B4, for which the Kd in data set [4] turned out to be 1.7 µM.

B5: endogenous MCL-1 protein from mouse embryonic fibroblasts (other, UniProt P97287 1-331, looked up)
chain: MFGLRRNAVIGLNLYCGGASLGAGGGSPAGARLVAEEAKARREGGGEAALLPGARVVARPPPVGAEDPDVTASAERRLHKSPGLLAVPPEEMAASAAAAIVSPEEELDGCEPEAIGKRPAVLPLLERVSEAAKSSGADGSLPSTPPPPEEEEDDLYRQSLEIISRYLREQATGSKDSKPLGEAGAAGRRALETLRRVGDGVQRNHETAFQGMLRKLDIKNEGDVKSFSRVMVHVFKDGVTNWGRIVTLISFGAFVAKHLKSVNQESFIEPLAETITDVLVRTKRDWLVKQRGWDGFVEFFHVQDLEGGIRNVLLAFAGVAGVGAGLAYLIR
notes: also called native MCL-1; endogenous/native MCL-1
B5: the binding result in [5] is “binds”.
